For data set [1], the target named is T1, Slbp2-MBP (Danio rerio (zebrafish), UniProt A1L2F4 1-326). The data set can be described thus: EMSA.
For data set [2], the target named is T1, Slbp2-MBP. The experiment in a line: competition EMSA.

B1: h2a mRNA stem-loop (H2a SL) probe (structured_RNA)
RNA: AAAAAGGUUCUUUUAAGAACCACCCAUUUUU
B1: the binding result with Slbp2-MBP [1] is reported as “binds”.

B2: unlabeled H2a SL competitor (structured_RNA)
RNA: B1 RNA
In the case of B2, the binding result with Slbp2-MBP [2] was “binds”.

These data come from PMC6239174.
